Reference: patent publication US20120238494A1 (published 2012)
Numbered stars: 1 amine (or outer) side, 2 acyl side, 3 side chain; on linkers, the order of the positions; unused ones are H or OH. Square brackets hold non-standard residues; d marks the D form. dSer(tBu) = CC(C)(C)OC[C@@H](N[*:1])C(=O)[*:2]; pGlu = O=C1CC[C@@H](C(=O)O)N1; azaGly = NNC(=O)O

How the values were obtained:
human GnRH receptor [1] = molecular target: T1, human GnRH receptor (human, UniProt P30968 1-328); assay: cell-based or functional assay
T1 construct: whole, on cells; Endogenous receptor; also called LHRH receptor; human pituitary GnRH receptor
T1 sequence (looked up): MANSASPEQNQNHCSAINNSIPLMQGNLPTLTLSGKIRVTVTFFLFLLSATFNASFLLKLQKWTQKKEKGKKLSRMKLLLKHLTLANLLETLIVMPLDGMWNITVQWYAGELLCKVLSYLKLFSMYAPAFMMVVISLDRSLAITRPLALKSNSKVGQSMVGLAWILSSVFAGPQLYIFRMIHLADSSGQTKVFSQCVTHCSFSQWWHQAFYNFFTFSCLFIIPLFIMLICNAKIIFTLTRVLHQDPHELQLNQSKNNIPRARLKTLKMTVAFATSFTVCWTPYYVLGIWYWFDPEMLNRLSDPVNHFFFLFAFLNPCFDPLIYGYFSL

human GnRH receptor [2] = molecular target: T1, human GnRH receptor; assay: radioligand binding, displacement curves, ME15392 human melanoma cell membranes
[3] = molecular target: T2, rat GnRH receptor (rat pituitaries) (rat, UniProt P30969 1-327); assay: radioligand binding, displacement curves, rat pituitaries (control)
T2 construct: whole, on cells; Endogenous receptor of rat pituitary tissue, used as the control preparation
T2 sequence (looked up): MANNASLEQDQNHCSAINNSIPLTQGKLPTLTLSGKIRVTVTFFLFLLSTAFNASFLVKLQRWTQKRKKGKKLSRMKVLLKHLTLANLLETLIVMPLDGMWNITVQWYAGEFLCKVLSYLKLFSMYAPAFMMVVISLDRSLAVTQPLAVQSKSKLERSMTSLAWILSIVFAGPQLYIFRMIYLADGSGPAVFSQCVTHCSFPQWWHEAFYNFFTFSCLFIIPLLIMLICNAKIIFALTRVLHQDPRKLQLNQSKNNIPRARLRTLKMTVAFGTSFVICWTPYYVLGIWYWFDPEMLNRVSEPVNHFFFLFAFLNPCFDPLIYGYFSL

human GnRH receptor [4] = molecular target: T1, human GnRH receptor; assay: radioligand binding, displacement curves, BLM human melanoma cell membranes

## Antide, a LHRH antagonist (Sigma Chemical Co., No. A8802) (peptide)
Human GnRH receptor [1]
  inhibition of MV3 melanoma cell proliferation at 10^-4 M: 15%
  inhibition of MV3 melanoma cell proliferation at 10^-5 M: 35%
  stimulation of MV3 melanoma cell growth at 10^-6 M: 40%

## GnRH antagonist Cetrorelix (peptide)
Human GnRH receptor [1]
  decrease of U-87MG cell proliferation at 10^-6 M: 28%
  inhibition of U-87MG cell proliferation at 10^-5 M: 30%

## Triptorelin, an LHRH agonist (Sigma Chemical Co., No. L9761) (peptide)
Human GnRH receptor [1]
  inhibition of MV3 melanoma cell proliferation at 10^-4 M, 10^-5 M and 10^-6 M, from day 4 on: 15%

B1: GnRH agonist LHRH-A, ZOLADEX [D-Ser(tBu)^6Aza-Gly-LHRH] (peptide)
peptide: [pGlu]HWSY[dSer(tBu)]LRP[azaGly]-NH2
modifications: also: 125I-labelled tracer form, position not given here
notes: the unlabelled form was used in the cell assays; also called Goserelin
Human GnRH receptor [2]
  Kd: 100 to 600 pM
[3]
  Kd: 1500 to 2000 pM
Human GnRH receptor [4]
  Kd: 700 to 1100 pM
